# Data as given in US20180172692.
# T1: β10*
# T1 chain: VSGWRLFKKIS
# T2: β9
# T2 chain: GSMLFRVTINS
# B1: Δ11S (protein)
# chain: MVFTLEDFVGDWEQTAAYNLDQVLEQGGVSSLLQNLAVSVTPIQRIVRSGENALKIDIHVIIPYEGLSADQMAQIEEVFKVVYPVDDHHFKVILPYGTLVIDGVTPNMLNYFGRPYEGIAVFDGKKITVTGTLWNGNKIIDERLITPD
# Experiments:
# β10* = target: T1, β10*
# β9 = target: T2, β9
protein,measurement,setting,value
B1,"luminescence (furimazine substrate), fragments each at 1 µM",β10*,the mixture of all three components is the only combination that produced significant luminescence
same,"luminescence (furimazine substrate), fragments each at 1 µM",β9,the mixture of all three components is the only combination that produced significant luminescence
